From PMC8042168, “The cell surface hyaluronidase TMEM2 regulates cell adhesion and migration via degradation of hyaluronan at focal adhesion sites” (The Journal of Biological Chemistry, 2021)

Biological target: T1, recombinant human α5β1 ECD heterodimer (human, UniProt P08648 42-995; P05556 21-728)
T1 construct: integrin α5, human, extracellular domain; integrin β1, human, extracellular domain; also called recombinant heterodimer of integrin ECD (α5β1); source: bought: R&D Systems (3230-A5-050)
T1 sequence (P08648 42-995, chain 1 of 2): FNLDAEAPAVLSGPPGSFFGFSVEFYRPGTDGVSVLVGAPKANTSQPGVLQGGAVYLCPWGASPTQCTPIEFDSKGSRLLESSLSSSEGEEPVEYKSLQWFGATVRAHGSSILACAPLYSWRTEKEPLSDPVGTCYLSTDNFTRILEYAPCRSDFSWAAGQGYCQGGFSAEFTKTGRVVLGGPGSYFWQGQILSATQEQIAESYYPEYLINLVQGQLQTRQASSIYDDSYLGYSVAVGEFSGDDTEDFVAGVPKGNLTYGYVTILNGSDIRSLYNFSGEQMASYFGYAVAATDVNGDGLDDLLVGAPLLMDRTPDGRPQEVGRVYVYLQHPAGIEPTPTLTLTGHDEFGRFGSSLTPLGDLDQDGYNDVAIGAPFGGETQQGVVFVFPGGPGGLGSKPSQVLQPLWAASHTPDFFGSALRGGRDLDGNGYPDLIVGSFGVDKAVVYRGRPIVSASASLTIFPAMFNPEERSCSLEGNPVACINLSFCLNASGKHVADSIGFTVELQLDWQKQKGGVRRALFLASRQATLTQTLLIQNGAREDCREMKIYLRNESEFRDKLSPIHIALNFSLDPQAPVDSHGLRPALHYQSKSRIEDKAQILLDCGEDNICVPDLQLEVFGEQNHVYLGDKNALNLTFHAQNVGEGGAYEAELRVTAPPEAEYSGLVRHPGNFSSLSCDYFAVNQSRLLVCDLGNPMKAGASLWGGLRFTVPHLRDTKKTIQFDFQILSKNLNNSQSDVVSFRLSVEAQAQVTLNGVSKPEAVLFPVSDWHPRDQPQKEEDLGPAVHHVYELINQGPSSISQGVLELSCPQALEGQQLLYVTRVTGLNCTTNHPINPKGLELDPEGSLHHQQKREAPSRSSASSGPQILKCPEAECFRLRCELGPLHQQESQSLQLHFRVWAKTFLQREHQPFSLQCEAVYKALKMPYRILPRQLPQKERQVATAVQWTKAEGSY
T1 sequence (P05556 21-728, chain 2 of 2): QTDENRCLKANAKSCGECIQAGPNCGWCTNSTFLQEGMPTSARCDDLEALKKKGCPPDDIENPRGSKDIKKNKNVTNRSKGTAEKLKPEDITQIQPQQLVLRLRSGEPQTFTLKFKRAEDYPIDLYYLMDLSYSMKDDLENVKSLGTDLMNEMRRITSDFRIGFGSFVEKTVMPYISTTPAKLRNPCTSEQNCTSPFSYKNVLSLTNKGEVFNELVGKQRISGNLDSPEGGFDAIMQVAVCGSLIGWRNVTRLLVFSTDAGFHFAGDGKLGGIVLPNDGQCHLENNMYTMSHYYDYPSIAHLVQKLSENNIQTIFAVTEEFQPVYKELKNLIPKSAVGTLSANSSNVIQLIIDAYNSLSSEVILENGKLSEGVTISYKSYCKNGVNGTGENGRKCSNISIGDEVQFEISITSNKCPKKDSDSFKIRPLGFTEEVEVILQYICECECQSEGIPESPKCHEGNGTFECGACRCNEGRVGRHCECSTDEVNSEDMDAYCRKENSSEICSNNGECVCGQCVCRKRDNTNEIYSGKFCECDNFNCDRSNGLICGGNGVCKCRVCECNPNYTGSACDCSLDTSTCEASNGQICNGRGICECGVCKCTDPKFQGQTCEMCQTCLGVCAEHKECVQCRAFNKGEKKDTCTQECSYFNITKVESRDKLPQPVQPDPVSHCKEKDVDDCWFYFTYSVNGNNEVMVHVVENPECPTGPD
Assay: pull-down; TMEM2–ECD-His6 (about 5 μg/20 μl) held on ProBond nickel chelating resin; 2 μg recombinant integrin ECD heterodimer incubated in HBSS++ overnight at 4 °C; control unbound resin; blots
Settings: both partners purified

B1: recombinant soluble TMEM2 extracellular domain, 6x His-tagged (domain or fragment, mouse, UniProt Q5FWI3 104-1383, looked up)
chain: SSKYAPDENCPDQNPRLRNWDPGQDSAKHIVIKEGDLFRLTSDATVDSIVIQDGGLLVFGDDKDGSKNITLRTRYILIQDGGALHIGAEKCRYRSKATITLYGKSDERESMPIFGKKFIGVEAGGTLELHGAQRTSWTMLARTLHSSGLPFGSYAFEKDFSRGLNVRVIDQDTARVLENEKFDTHEYHNESRRLQEFLRAQEPGRIVAIAVGDSAVKSLLQGTIQMIQDRLGSKLIQGLGYRQAWALVGVIDGGSSSCNESVRNYENHSTGGKALAQGEFYTLDGQKFSVTAYSEWSQGISLSGFRVDIADGVKLHLLDDVSTWEAGDRIVVASTDYSMYQAEELTLLRCPECSRSQVKVKEIPQYLHVGEIIDGIDMRAEVGLLTRNIVIQGEMEDSCYAENHCQFFDYDTFGGHVMIEKNFTSVHLSYVELKHMGQQHMGRYPVHFHLCGDVDSKGGYSQPASVDGLSVHHSFSRCITVHGTSGLLIKDTIGFDTLGHCFFLEDGVEQRNILYHNLGLLTKPGTLLPTDRNSSMCTVMRDGVFGNYVPVPTTDCMAVSTFWIAHPNNHLINNAAAGSQDAGIWYLFHKEPTGESSGLQLLEKPELTPLGIFYNNRVHSNFKAGLFVDKGVKTTNASASDPREYLCLDNSARFRPHQDADPEKPRVAAIIDRLIAFKNNDNGAWVRGGDIIVQNSAFADNGKGLTFASDGSFPSDEGSSQEVTESLFVGESRNYGFQGGQNKYMGTGGIDQKPRTLPRNRTFPIRGFQIYDGPIHLTKSTFKKYVPTPDRYSSAIGFLMKNSWQTTPRNNVSLVKFGPQVSLNVFFGKPGPWFEDCELDGDKNSIFHDIDGSVTGYKDTYVGRMDNYLIRHPNCVNVTKWNAVICSGTYAQVYVQTWNTPNLSMIITRDEYPSHPMVLRGINQRAISPQYQPVVMLEKGYTIHWNGPAPRTTFLYLVNFNKDDWIRVGLCYPANTSFQVTVGFLQRQNGSLSRIEDYEPARSMEELQKKPSERKFYFDSGTGLLFLYLRAHSHRDGHSYCSSQGCERVKIQAATDSKDISNCMAKAYPQYYKKPSAVKRMPAMLTGLCQGCGTHQMVFTSDPHKSYLPVRFQSPGKAEIQRGDPSIISVNGTDFTFRSAGALLLIVDACSVPFRVKEKRMFLSADVSHMEEYFKASIPPRSIVLLSTRGEIKQLNISDSLAVLGLAKPAHLYSKGSVVFLGFSGNFAPSWTKLFTSPDEQGLGVLEQFLPLQMEEYGCSRTGSVHRRDLDLLQQALKVL
notes: transmembrane protein 2 (TMEM2; CEMIP2), mouse, extracellular domain Ser104–Leu1383; in pSecTag2A with the C-terminal Myc peptide removed; the vector supplies a secretion leader (surmised); also called TMEM2 ECD; TMEM2–ECD; not shown: His6, C-terminal, kept
binding result: binds
